{"source": "paper PMC11736853", "origin": "cited, not measured here", "key": {"[1]": {"biological_target": "CK2β triazole cyclised peptide (Homo sapiens) (UniProt P67870)", "sequence (P67870 2-215)": "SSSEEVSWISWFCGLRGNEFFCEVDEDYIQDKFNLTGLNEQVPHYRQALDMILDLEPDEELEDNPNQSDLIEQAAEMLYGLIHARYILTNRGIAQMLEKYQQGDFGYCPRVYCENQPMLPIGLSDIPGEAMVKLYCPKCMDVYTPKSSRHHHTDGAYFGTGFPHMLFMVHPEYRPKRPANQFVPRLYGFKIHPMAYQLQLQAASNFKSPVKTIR", "assay": "ITC"}, "[2]": {"biological_target": "BCL9 peptide 54 351-375 (Homo sapiens) (UniProt O00512)", "sequence (O00512 351-375)": "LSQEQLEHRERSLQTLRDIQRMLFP", "assay": "competitive FP"}, "[3]": {"biological_target": "BCL9 peptide 53 347-381 (Homo sapiens) (UniProt O00512)", "sequence (O00512 347-381)": "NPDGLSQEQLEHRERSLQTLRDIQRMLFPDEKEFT", "assay": "competitive FP"}, "[4]": {"biological_target": "BCL9 peptide 53 347-381 (Homo sapiens) (UniProt O00512)", "assay": "FP"}, "[5]": {"biological_target": "RAP1 (Homo sapiens) (UniProt Q9NYB0)", "sequence (Q9NYB0 2-399)": "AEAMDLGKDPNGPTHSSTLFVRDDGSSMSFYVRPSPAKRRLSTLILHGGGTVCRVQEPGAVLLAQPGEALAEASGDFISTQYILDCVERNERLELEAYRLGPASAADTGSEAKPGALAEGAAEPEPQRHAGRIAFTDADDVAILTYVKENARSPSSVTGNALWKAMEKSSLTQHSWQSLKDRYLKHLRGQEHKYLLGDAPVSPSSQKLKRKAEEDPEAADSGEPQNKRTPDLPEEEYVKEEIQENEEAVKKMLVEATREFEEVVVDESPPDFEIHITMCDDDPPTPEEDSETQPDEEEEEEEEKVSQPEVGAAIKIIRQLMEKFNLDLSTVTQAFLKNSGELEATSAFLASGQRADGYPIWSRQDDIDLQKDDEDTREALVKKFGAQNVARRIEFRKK"}, "[6]": {"biological_target": "iNOS peptide 24 (Homo sapiens) (UniProt P35228)", "assay": "ITC"}, "[7]": {"biological_target": "R6IP peptide 64 (Homo sapiens) (UniProt Q6IQ26)"}, "[8]": {"biological_target": "TRF2 41-residue sequence (Homo sapiens) (UniProt Q15554)"}, "[9]": {"biological_target": "Nrf2 peptide 41 (Homo sapiens) (UniProt Q16236)", "sequence (Q16236 whole entry, looked up, tested part not stated)": "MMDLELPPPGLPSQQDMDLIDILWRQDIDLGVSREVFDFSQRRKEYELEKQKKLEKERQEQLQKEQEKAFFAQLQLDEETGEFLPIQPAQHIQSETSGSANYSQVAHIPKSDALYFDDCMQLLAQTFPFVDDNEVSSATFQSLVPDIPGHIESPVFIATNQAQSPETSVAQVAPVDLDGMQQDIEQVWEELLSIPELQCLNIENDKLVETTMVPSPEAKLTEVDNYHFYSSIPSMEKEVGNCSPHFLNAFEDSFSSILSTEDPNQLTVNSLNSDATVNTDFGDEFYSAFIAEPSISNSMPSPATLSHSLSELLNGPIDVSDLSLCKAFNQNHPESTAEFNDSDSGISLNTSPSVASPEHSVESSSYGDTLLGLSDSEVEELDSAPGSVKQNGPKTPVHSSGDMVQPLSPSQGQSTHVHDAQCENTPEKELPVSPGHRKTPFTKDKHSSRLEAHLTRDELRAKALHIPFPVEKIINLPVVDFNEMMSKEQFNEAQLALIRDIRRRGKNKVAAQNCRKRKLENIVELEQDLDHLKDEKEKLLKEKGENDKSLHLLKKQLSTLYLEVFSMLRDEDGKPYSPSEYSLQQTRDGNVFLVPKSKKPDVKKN"}, "[10]": {"biological_target": "AIF peptide 39 (Homo sapiens) (UniProt O95831)", "sequence (O95831 370-394)": "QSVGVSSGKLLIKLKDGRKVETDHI"}, "[11]": {"biological_target": "AIF bicyclic peptide 63 (Homo sapiens) (UniProt O95831)"}, "[12]": {"biological_target": "AIF peptide 39 (Homo sapiens) (UniProt O95831)", "assay": "SPR"}, "[13]": {"biological_target": "AIF peptide 40 (Homo sapiens) (UniProt O95831)", "sequence (O95831 whole entry, looked up, tested part not stated)": "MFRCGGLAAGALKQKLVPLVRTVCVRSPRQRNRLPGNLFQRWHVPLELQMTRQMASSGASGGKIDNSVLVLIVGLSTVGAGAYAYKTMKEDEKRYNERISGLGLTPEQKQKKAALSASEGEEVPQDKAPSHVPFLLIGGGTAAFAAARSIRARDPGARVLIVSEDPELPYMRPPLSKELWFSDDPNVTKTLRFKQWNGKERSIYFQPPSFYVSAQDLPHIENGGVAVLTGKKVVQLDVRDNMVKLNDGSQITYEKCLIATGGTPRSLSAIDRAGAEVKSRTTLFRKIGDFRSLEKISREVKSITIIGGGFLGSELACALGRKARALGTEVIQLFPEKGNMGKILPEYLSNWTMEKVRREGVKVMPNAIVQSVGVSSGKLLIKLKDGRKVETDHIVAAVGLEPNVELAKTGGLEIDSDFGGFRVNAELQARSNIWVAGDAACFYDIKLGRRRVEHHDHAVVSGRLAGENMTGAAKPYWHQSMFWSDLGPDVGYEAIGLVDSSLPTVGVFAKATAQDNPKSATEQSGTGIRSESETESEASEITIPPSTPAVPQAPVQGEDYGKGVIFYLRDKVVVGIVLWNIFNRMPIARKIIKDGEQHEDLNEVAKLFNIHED", "assay": "SPR"}}, "note": "Like-named read-outs stand apart in the source and are kept apart here."}
{"substance": "CK2α (from UniProt P68400)", "values": [{"measurement": "Kd", "setting": "[1]", "value": 460, "unit": "nM"}]}
{"substance": "β-catenin (from UniProt P35222)", "values": [{"measurement": "Ki", "setting": "[2]", "value": 1900, "unit": "nM"}, {"measurement": "Ki", "setting": "[3]", "value": 960, "unit": "nM"}, {"measurement": "Kd", "setting": "[4]", "value": 616, "unit": "nM"}]}
{"substance": "TRF2 41-residue peptide (from UniProt Q15554)", "values": [{"measurement": "Kd", "setting": "[5]", "value": 16.5, "unit": "nM"}]}
{"substance": "SPSB2 (from UniProt Q99619)", "values": [{"measurement": "Kd", "setting": "[6]", "value": 13.3, "unit": "nM"}]}
{"substance": "Rab6a (from UniProt P20340)", "values": [{"measurement": "Kd", "setting": "[7]", "value": 7800, "unit": "nM"}]}
{"substance": "RAP1 (from UniProt Q9NYB0)", "values": [{"measurement": "Kd", "setting": "[8]", "value": 16.5, "unit": "nM"}]}
{"substance": "Keap1 (from UniProt Q14145)", "values": [{"measurement": "Kd", "setting": "[9]", "value": 27.3, "unit": "nM"}]}
{"substance": "CypA (from UniProt P62937)", "values": [{"measurement": "Kd", "setting": "[10]", "value": 5000, "unit": "nM"}, {"measurement": "Kd", "setting": "[11]", "value": 850, "unit": "nM"}, {"measurement": "Kd", "setting": "[12]", "value": 12000, "unit": "nM"}, {"measurement": "Kd", "setting": "[13]", "value": 2400, "unit": "nM"}]}
